Experimental data: article PMC7005868

Target: CD63-GLucC (CD63 truncated at Val206 fused to the C-terminal fragment of Gaussia luciferase) (UniProt P08962)
Experiment: split reporter (BiFC, NanoBiT); Gaussia luciferase protein complementation assay (PCA); GLucN and GLucC fusion plasmids co-transfected 1:1 into HEK293FT; membranes disrupted by two freeze-thaw cycles; luminescence with 10 uM coelenterazine

UniProt P08962, sequence (P08962 1-206): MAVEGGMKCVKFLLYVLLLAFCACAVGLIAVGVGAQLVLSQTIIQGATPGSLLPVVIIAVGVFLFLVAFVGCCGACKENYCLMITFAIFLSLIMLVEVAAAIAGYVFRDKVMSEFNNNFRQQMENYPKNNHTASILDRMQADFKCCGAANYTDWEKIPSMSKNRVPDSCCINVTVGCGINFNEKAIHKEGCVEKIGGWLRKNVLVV

GLucN-T1ΔC (TIMP-1 truncated after L168) (domain or fragment)
loss of the ability to bind CD63 against full-length TIMP-1: 83%
